Values quoted from earlier work as cited in US20190382462A1, “METHODS AND COMPOSITIONS FOR TREATING HPA HYPERACTIVITY” (priority 2017, published 2019).
Where two headings read alike, the source gives them in different places. Where no end group is shown, it is not given here.

Key:
[1] = human serum
[2] = molecular target: T1, CRF1 (Homo sapiens, UniProt P34998)
T1 sequence (P34998 24-415): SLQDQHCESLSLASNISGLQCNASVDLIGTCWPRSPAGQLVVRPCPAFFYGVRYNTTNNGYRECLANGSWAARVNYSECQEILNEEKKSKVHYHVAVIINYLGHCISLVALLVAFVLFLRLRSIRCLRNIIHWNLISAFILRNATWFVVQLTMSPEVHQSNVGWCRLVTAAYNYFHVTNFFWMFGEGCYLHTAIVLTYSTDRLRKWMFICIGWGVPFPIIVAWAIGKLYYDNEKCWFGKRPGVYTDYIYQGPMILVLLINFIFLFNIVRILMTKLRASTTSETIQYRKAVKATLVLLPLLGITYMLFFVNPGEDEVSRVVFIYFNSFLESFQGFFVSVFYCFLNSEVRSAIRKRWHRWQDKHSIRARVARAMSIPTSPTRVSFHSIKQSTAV

[3] = molecular target: T2, CRF-BP (Homo sapiens, UniProt P24387)
T2 sequence (P24387 25-322): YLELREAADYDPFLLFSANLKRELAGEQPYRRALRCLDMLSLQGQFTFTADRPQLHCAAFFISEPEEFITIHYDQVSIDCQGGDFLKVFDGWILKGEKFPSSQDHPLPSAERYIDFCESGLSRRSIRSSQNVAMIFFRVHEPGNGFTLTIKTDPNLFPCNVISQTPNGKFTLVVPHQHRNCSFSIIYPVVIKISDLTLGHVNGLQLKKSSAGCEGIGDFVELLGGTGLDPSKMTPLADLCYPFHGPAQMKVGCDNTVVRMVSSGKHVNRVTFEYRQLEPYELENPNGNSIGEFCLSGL

bevacizumab: therapeutic antibody
circulating serum concentration reported for therapeutic antibody (in vivo): 10 to 30 µg/mL

aglycosylated form of human transferrin: aglycosylated form, about 2-8% of the total transferrin pool
half-life [1]: 336 to 408 h

urocortin 1 (DNPSLSIDLTFHLLRTLLELARTQSQRERAEQNRIIFDSV; ends and bridges not checked; UniProt P55089 83-122, looked up) [Ucn1]
binding affinity for CRF1 relative to CRF [2]: threefold higher

Ucn2: CRF-related peptide, selective CRF2 agonist (IVLSLDVPIGLLQILLEQARARAAREQATTNARILARVGHC; ends and bridges not checked; UniProt Q96RP3 72-112, looked up)
affinity for CRF-BP [3]: neither Ucn2 nor Ucn3 exhibits appreciable affinity

etanercept
half-life (b287, b290): roughly 70 hours

Factor IX: other formulations of Factor IX alone
half-life (b170, Alprolix: terminal half-life in clinical trials): ~18 h

Human transferrin: highly abundant serum glycoprotein that carries iron
half-life [1]: 170 to 288 h

Ucn3: CRF-related peptide, selective CRF2 agonist (FTLSLDVPTNIMNLLFNIAKAKNLRAQAAANAHLMAQI; ends and bridges not checked; UniProt Q969E3 120-157, looked up)
affinity for CRF-BP [3]: neither Ucn2 nor Ucn3 exhibits appreciable affinity

darbepoetin alfa
serum half-life compared to epoetin alpha and epoetin beta (in vivo): 3 fold
